# From publication PMC3161508 (Advances in experimental medicine and biology, 2010)
# Biological target: the molecule itself
# Assay: non-reducing SDS-PAGE and Western blotting
protein,measurement,value
"cone CNG channel β subunit CNGB3 (natural protein, mouse (endogenous in retina), UniProt Q9JJZ9 1-694, looked up) MLKSLTVKFNKVNPMEGRMEKKLCPNLSSLSQPTIAQGDNQSEKEPLRSRTPITFEKSHSKEDNSTGENSLRDFTPNPDPECRAELTRTMAEMEKTRTGKERPVSFKTKVLETSIINEYTDAHLHNLVERMRERTALYKKTLTEEENFPEVEASSQTAMSTNISPKQENNSKLKEHQDTFSFKPQRVPVKEHLRRMILPRSIDSYTDRVYLLWLLLVTIAYNWNCWLLPVRLVFPCQTPDNKNYWIITDIVCDIIYLCDILLIQPRLQFVRGGEIIVDSNELKRNYRSSTKFRMDVASLLPFEVLYIFFGVNPIFRANRILKYTSFFEFNHHLESIMDKAYVYRVIRTTGYLLFLLHINACVYYWASDYEGIGSTKWVYNGEGNKYLRCFYWAVRTLITIGGLPEPQTSFEIVFQFLNFFSGVFVFSSLIGQMRDVIGAATANQNYFQACMDHIIAYMNKYSIPQSVQYRVRTWLEYTWNSQRILDESNLLENLPTAMQLSIALDINFSIIDKVELFKGCDTQMIYDLLLRLKSTIYLPGDFVCKKGEIGKEMYIIKHGEVQVLGGPDGAQVLVTLKAGSVFGEISLLAKGGGNRRTADVVAHGFANLLTLDKKTLQEILLHYPTSKKLLMKKAKILLSQKGKTTQAIPARPGPAFLFPPKEETPRMLKVLLGNTGKVDLGRLLKGKRKTTTQK",stoichiometry N,2
